Source: patent US20200392147, “AMIDINO- AND AMINO-ROCAGLATES AS NOVEL TRANSLATION INHIBITORS AND ANTICANCER AGENTS” (TRUSTEES OF BOSTON UNIVERSITY, published 2020)

What was measured:
Assay in all cases: FP
Details in all cases: tags: His6 (pET15b, E. coli BL21(DE3)); label: FAM
eIF4A1 [1] = target: T1, eIF4A1 (UniProt P60843 P60843:1-406)
Experimental: FAM-labelled RNA was incubated in the presence of 500 nM eIF4A1 and the indicated concentration of CR-1-31-B for 30 min, after which time FP measurements were obtained. The change in FP relative to vehicle controls is presented. n=3 SD.
FIGS. 17A-17F. Assessment of eIF4A1 and eIF4A2 RNA binding specificity. 17A. Chemical structure of the most commonly used rocaglates in biological studies 17B. Coomassie blue staining of SDS-PAGE showing eIF4A1 and eIF4A2 preparations used herein. 17C. eIF4A1 and eIF4A2 have similar RNA binding specificities. eIF4A1 or eIF4A2 (500 nM) were incubated in the presence of FAM-labelled RNA (10 nM) having the indicated sequence composition for 30 mins, after which FP measurements were taken. The change in FP obtained relative to vehicle controls is presented. n=3 SD. 17D. Binding of eIF4A1 and eIF4A2 to RNA is equally responsive to CR-1-31-B (23). FAM labeled poly r(AG)₈ (SEQ ID NO: 2) (10 nM) was mixed with the indicated concentrations of eIF4A1 or eIF4A2 either in the presence of vehicle (DMSO) or […] CR-1-31-B(23). Reactions were equilibrated at RT for 30 minutes prior to measuring light polarization. n=3 SD. 17E. […] FAM-labelled RNA was incubated in the presence of 500 nM eIF4A1 and the indicated concentration of CR-1-31-B (23) for 30 min, after which time FP measurements were obtained. The change in FP relative to vehicle controls is presented. n=3±SD. 17F. […]

eIF4A2 = eIF4A2 (UniProt P10630 P10630:1-407)
Sequence of eIF4A2 (P10630 whole entry, one chain of several): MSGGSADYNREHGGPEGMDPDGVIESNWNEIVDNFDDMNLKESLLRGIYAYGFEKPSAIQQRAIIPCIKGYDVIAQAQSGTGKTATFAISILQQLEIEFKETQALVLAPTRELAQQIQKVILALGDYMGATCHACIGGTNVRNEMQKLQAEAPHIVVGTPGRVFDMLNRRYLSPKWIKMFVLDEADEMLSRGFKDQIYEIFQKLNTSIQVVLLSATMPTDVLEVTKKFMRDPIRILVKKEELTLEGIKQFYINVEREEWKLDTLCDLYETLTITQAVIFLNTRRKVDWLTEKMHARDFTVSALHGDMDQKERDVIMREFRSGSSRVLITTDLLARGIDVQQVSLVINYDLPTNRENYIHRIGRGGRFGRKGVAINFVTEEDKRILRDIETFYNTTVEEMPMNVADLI
Experimental: (§1) FIGS. 17A-17F. Assessment of eIF4A1 and eIF4A2 RNA binding specificity. 17A. Chemical structure of the most commonly used rocaglates in biological studies 17B. Coomassie blue staining of SDS-PAGE showing eIF4A1 and eIF4A2 preparations used herein. 17C. eIF4A1 and eIF4A2 have similar RNA binding specificities. eIF4A1 or eIF4A2 (500 nM) were incubated in the presence of FAM-labelled RNA (10 nM) having the indicated sequence composition for 30 mins, after which FP measurements were taken. The change in FP obtained relative to vehicle controls is presented. n=3 SD. 17D. Binding of eIF4A1 and eIF4A2 to RNA is equally responsive to CR-1-31-B (23). FAM labeled poly r(AG)₈ (SEQ ID NO: 2) (10 nM) was mixed with the indicated concentrations of eIF4A1 or eIF4A2 either in the presence of vehicle (DMSO) or […] CR-1-31-B(23). Reactions were equilibrated at RT for 30 minutes prior to measuring light polarization. n=3 SD. 17E. […] FAM-labelled RNA was incubated in the presence of 500 nM eIF4A1 and the indicated concentration of CR-1-31-B (23) for 30 min, after which time FP measurements were obtained. The change in FP relative to vehicle controls is presented. n=3±SD. 17F. The extent of eIF4A-RNA binding stimulated by CR-1-31-B 23 scales with polypurine content. FAM-labelled RNA was incubated with 500 nM eIF4A1 and the indicated concentration of CR-1-31-B (23) for 30 min, after which time FP measurements were obtained. The change in FP obtained relative to vehicle controls is presented. n=3 SD.

eIF4A1 [2] = target: T1, eIF4A1; remark: listed apart in the source
Experimental: as §1

T1 sequence (P60843 whole entry, one chain of several): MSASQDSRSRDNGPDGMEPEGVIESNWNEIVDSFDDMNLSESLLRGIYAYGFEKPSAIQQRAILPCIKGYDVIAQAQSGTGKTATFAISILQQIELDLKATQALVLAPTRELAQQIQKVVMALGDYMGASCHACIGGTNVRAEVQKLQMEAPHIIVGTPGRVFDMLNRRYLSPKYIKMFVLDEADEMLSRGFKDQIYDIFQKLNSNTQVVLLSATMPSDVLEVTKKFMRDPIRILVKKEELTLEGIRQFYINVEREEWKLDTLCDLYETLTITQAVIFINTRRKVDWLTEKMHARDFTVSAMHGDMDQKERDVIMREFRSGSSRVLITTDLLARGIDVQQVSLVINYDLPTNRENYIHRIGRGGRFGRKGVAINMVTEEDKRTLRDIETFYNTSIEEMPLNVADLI

Binder	binding result (eIF4A1 [1])	binding result (eIF4A2)	binding result (eIF4A1 [2])
AGAGAGAGAGAGAGAG (ssRNA) [poly r(AG)8]	binds	binds	–
AGAAGAAGAAGAAGAA (ssRNA) [r(A(GAA)5)]	–	binds	binds
